B1: Zyxin (Homo sapiens), Q15942 (parent)
chain: MAAPRPSPAISVSVSAPAFYAPQKKFGPVVAPKPKVNPFRPGDSEPPPAPGAQRAQMGRVGEIPPPPPEDFPLPPPPLAGDGDDAEGALGGAFPPPPPPIEESFPPAPLEEEIFPSPPPPPEEEGGPEAPIPPPPQPREKVSSIDLEIDSLSSLLDDMTKNDPFKARVSSGYVPPPVATPFSSKSSTKPAAGGTAPLPPWKSPSSSQPLPQVPAPAQSQTQFHVQPQPQPKPQVQLHVQSQTQPVSLANTQPRGPPASSPAPAPKFSPVTPKFTPVASKFSPGAPGGSGSQPNQKLGHPEALSAGTGSPQPPSFTYAQQREKPRVQEKQHPVPPPAQNQNQVRSPGAPGPLTLKEVEELEQLTQQLMQDMEHPQRQNVAVNELCGRCHQPLARAQPAVRALGQLFHIACFTCHQCAQQLQGQQFYSLEGAPYCEGCYTDTLEKCNTCGEPITDRMLRATGKAYHPHCFTCVVCARPLEGTSFIVDQANRPHCVPDYHKQYAPRCSVCSEPIMPEPGRDETVRVVALDKNFHMKCYKCEDCGKPLSIEADDNGCFPLDGHVLCRKCHTARAQT
B2: Nucleoside diphosphate kinase homolog 5 (Homo sapiens), P56597 (parent)
chain: MEISMPPPQIYVEKTLAIIKPDIVDKEEEIQDIILRSGFTIVQRRKLRLSPEQCSNFYVEKYGKMFFPNLTAYMSSGPLVAMILARHKAISYWLELLGPNNSLVAKETHPDSLRAIYGTDDLRNALHGSNDFAAAEREIRFMFPEVIVEPIPIGQAAKDYLNLHIMPTLLEGLTELCKQKPADPLIWLADWLLKNNPNKPKLCHHPIVEEPY
B3: Ligand of Numb protein X 2 (Homo sapiens), Q8N448 (parent)
chain: MGTTSDEMVSVEQTSSSSLNPLCFECGQQHWTRENHLYNYQNEVDDDLVCHICLQPLLQPLDTPCGHTFCYKCLRNFLQEKDFCPLDRKRLHFKLCKKSSILVHKLLDKLLVLCPFSSVCKDVMQRCDLEAHLKNRCPGASHRRVALERRKTSRTQAEIENENGPTLLDPAGTLSPEADCLGTGAVPVERHLTSASLSTWSEEPGLDNPAFEESAGADTTQQPLSLPEGEITTIEIHRSNPYIQLGISIVGGNETPLINIVIQEVYRDGVIARDGRLLAGDQILQVNNYNISNVSHNYARAVLSQPCNTLHLTVLRERRFGNRAHNHSDSNSPREEIFQVALHKRDSGEQLGIKLVRRTDEPGVFILDLLEGGLAAQDGRLSSNDRVLAINGHDLKYGTPELAAQIIQASGERVNLTIARPGKPQPGNTIREAGNHSSSSQHHTPPPYYSRPSSHKDLTQCVTCQEKHITVKKEPHESLGMTVAGGRGSKSGELPIFVTSVPPHGCLARDGRIKRGDVLLNINGIDLTNLSHSEAVAMLKASAASPAVALKALEVQIVEEATQNAEEQPSTFSENEYDASWSPSWVMWLGLPSTLHSCHDIVLRRSYLGSWGFSIVGGYEENHTNQPFFIKTIVLGTPAYYDGRLKCGDMIVAVNGLSTVGMSHSALVPMLKEQRNKVTLTVICWPGSLV
partner: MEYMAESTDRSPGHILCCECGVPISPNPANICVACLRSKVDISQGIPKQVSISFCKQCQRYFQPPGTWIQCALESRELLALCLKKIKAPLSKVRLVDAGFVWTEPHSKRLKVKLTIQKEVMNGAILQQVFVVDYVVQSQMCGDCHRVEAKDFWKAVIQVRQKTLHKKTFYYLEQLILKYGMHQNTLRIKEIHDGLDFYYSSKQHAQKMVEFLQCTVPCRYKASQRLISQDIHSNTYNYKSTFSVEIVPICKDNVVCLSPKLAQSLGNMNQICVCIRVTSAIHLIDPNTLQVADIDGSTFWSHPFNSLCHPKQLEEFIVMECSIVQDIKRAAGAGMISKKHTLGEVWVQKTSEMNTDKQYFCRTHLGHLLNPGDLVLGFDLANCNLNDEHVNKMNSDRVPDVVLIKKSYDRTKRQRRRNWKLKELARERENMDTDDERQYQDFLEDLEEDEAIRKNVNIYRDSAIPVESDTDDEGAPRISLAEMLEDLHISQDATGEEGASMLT
B4: Keratin-associated protein 26-1 (Homo sapiens), Q6PEX3 (parent)
chain: MSCPNYCSGNSNSGSLRTSRHIPLTSIDLCPTSVSCGDVLYLPTSSQDHTWVTDNCQETCGEPTSCQPVHCETGNLETSCGSSTAYYVPRPCQGSSFLPASFFSSSCLPVSCRPQRYVSSGCRPLRPLLNSYQPIGDCVPNAYRPQFCLSKSCQPQNLLTSGCQPSSCLAYRPQSLHVVSSSLRPLGPLFSGCQPLTHVFSTCRPSCSGL
partner: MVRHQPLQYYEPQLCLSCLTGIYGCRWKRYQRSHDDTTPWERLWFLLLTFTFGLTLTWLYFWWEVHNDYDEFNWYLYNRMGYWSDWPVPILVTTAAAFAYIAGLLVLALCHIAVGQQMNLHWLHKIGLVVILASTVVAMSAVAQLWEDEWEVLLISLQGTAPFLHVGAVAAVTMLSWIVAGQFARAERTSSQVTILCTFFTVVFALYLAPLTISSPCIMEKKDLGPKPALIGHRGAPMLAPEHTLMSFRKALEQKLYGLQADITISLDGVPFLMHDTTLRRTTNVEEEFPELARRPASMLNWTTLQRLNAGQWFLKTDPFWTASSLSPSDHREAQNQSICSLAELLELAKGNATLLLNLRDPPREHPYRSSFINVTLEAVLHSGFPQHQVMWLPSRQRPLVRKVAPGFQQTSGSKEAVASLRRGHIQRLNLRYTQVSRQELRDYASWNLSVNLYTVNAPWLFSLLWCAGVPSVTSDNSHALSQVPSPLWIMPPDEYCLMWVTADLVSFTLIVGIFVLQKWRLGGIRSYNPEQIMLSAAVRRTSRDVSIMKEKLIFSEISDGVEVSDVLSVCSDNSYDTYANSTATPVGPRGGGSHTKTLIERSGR
B5: Notch homolog 2 N-terminal-like protein A (Homo sapiens), Q7Z3S9 (parent)
chain: MCVTYHNGTGYCKCPEGFLGEYCQHRDPCEKNRCQNGGTCVAQAMLGKATCRCASGFTGEDCQYSTSHPCFVSRPCLNGGTCHMLSRDTYECTCQVGFTGKECQWTDACLSHPCANGSTCTTVANQFSCKCLTGFTGQKCETDVNECDIPGHCQHGGTCLNLPGSYQCQCLQGFTGQYCDSLYVPCAPSPCVNGGTCRQTGDFTFECNCLPETVRRGTELWERDREVWNGKEHDEN
partner: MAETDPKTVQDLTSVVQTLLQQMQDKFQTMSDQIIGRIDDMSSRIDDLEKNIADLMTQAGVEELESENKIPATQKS

Variants of: B1
Details: with pf21a_human PHF21A
In the case of R563Q, the “effect of a mutation on the interaction” value is reported as “with no effect”. For R489W, the “effect of a mutation on the interaction” value was “with no effect”.

Variants of: B2
Details: with dydc1_human DYDC1, Q8WWB3
dydc1_human DYDC1, Q8WWB3, sequence (Q8WWB3 whole entry): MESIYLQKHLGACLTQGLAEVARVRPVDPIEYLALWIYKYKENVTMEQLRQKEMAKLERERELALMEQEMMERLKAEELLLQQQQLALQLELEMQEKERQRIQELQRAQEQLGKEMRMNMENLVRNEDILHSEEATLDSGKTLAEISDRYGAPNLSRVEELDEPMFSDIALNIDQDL
I165M was tested, and the “effect of a mutation on the interaction” value was “with no effect”. S50N was tested, and the “effect of a mutation on the interaction” value was “with no effect”. With N198D the “effect of a mutation on the interaction” value was “with no effect”. In the case of L103F, the “effect of a mutation on the interaction” value is reported as “with no effect”.

Variants of: B3
Details: with nmd3_human NMD3, Q96D46
T183I was tested, and the “effect of a mutation on the interaction” value was “with no effect”. In the case of V145I, the “effect of a mutation on the interaction” value is reported as “with no effect”.

Variants of: B4
Details: with gdpd5_human GDPD5, Q8WTR4
For S26Y, the “effect of a mutation on the interaction” value was “with no effect”.

Variants of: B5
Details: with hsbp1_human HSBP1, O75506
In the case of R74Q, the “effect of a mutation on the interaction” value is reported as “with no effect”. With A115T the “effect of a mutation on the interaction” value was “with no effect”.

Source: IntAct's records for PubMed 31515488
